From patent US20130131322A1

Target: EGFR on A431 cells (human) (UniProt P00533)
Test: cell-based or functional assay

inhibition of EGFR phosphorylation in A431 cells: 40%
Substance: anti-EGFR antibody (clone 225: the original antibody of cetuximab, Calbiochem)
